Source: US20240122983A1 (SHATTUCK LABS, published 2024)
Where two headings read alike, the source gives them in different places.

T1: recombinant mouse m4-1BB protein (mouse, UniProt P20334 24-187)
T1 sequence (looked up): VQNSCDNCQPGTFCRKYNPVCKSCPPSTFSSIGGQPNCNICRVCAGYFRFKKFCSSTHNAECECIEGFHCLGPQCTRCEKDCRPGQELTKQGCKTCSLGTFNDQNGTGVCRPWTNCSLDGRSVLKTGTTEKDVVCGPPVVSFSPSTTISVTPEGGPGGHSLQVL

T2: recombinant mouse mFLT3 protein (mouse, UniProt Q00342 28-544, limits assumed)
T2 sequence (looked up): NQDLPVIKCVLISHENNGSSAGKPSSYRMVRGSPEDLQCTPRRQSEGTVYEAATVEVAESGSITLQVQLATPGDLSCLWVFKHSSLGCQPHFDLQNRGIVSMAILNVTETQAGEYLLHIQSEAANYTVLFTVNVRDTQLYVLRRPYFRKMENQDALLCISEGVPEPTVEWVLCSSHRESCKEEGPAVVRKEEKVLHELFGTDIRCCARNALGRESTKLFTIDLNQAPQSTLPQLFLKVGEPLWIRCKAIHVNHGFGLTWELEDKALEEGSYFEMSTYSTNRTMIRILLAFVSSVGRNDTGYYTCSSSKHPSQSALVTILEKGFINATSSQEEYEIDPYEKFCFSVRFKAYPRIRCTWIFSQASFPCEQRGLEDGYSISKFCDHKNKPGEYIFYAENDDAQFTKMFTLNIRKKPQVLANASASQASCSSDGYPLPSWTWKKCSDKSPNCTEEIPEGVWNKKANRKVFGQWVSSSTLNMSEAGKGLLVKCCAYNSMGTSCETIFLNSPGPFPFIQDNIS


Experiments:
[1] = target: T3, anti-mIgG; assay: ELISA: plate-bound anti-mIgG (10ug/ml), detection anti-mIgG-HRP (1:1000)
T3 construct: capture antibody of the mFc ELISA; also called Capture Ab: anti-mIgG(10ug/ml)
Text: (§1) Recombinant mFLT3L protein was used to generate a standard curve. […] A mouse whole IgG was used to generate a standard curve. […] Recombinant m4-1BBL protein was used to generate a standard curve.

[2] = target: T3, anti-mIgG; assay: as above; remark: listed apart in the source
Text: as §1
Recombinant mFLT3L protein was used to generate a standard curve. […] A mouse whole IgG was used to generate a standard curve. […] Recombinant mOX40L protein was used to generate a standard curve.

[3] = target: T1, recombinant mouse m4-1BB protein; assay: ELISA: plate-bound m41BB (3.3ug/ml), detection anti-m41BBL (1:1000) and anti-goat IgG (1:10,000)
Text: as §1

[4] = target: T1, recombinant mouse m4-1BB protein; assay: Dual ELISA: capture anti-FLT3L (R&D AF427), detection with m41BB-His (Acro), tertiary anti-His/HRP (Abcam)
Experimental: Capture was performed with an anti-FLT3L antibody, followed by detection of the co-stimulatory domain with a his-tagged recombinant protein, and visualized using an anti-his/HRP antibody.

[5] = target: T2, recombinant mouse mFLT3 protein; assay: Octet biolayer interferometry, mFLT3-his captured on the sensor
Text: Octet was used to determine on-/off-rates and binding affinities to the target receptors.

Binder	EC50 (read off the curve) [1] [nM]	EC50 (read off the curve) [2] [nM]	EC50 (read off the curve) [3] [nM]	EC50 (read off the curve) [4] [nM]	binding result [5]
mFLT3L-Fc-4-1BBL chimeric protein (Fc fusion, murine;mouse (printed as mFc), UniProt P49772 27-189, looked up, extracellular domain;domain: hinge-CH2-CH3 Fc domain; Expressed in 293 cells, purified on protein A; also called murine FLT3L-Fc-4-1BBL) GTPDCYFSHSPISSNFKVKFRELTDHLLKDYPVTVAVNLQDEKHCKALWSLFLAQRWIEQLKTVAGSKMQTLLEDVNTEIHFVTSCTFQPLPECLRFVQTNISHLLKDTCTQLLALKPCIGKACQNFSRCLEVQCQPDSSTLLPPRSPIALEATELPEPRPRQVPRDCGCKPCICTVPEVSSVFIFPPKPKDVLTITLTPKVTCVVVDISKDDPEVQFSWFVDDVEVHTAQTQPREEQFNSTFRSVSELPIMHQDWLNGKEFKCRVNSAAFPAPIEKTISKTKGRPKAPQVYTIPPPKEQMAKDKVSLTCMITDFFPEDITVEWQWNGQPAENYKNTQPIMNTNGSYFVYSKLNVQKSNWEAGNTFTCSVLHEGLHNHHTEKSLSHSPGKRTEPRPALTITTSPNLGTRENNADQVTPVSHIGCPNTTQQGSPVFAKLLAKNQASLCNTTLNWHSQDGAGSSYLSQGLRYEEDKKELVVDSPGLYYVFLELKLSPTFTNTGHKVQGWVSLVLQAKPQVDDFDNLALTVELFPCSMENKLVDRSWSQLLLLKAGHRLSVGLRAYLHGAQDAYRDWELSYPNTTSFGLFLVKPDNPWE	~7	~7	~9	~1	–
mCD40L-Fc (Acro) (Fc fusion, mouse, UniProt P27548 112-260, looked up, soluble part fused to Fc; also called commercially available mCD40L-Fc (Acro Biosystems)) fusion chain: MQRGDEDPQIAAHVVSEANSNAASVLQWAKKGYYTMKSNLVMLENGKQLTVKREGLYYVYTQVTFCSNREPSSQRPFIVGLWLKPSSGSERILLKAANTHSSSQLCEQQSVHLGGVFELQAGASVFVNVTEASQVIHRVGFSSFGLLKL	–	–	–	–	no binding (tested: concentration not printed)
